Laboratory results from PMC9483108.
Read-outs that look alike come from different tables or passages of the source.

B1: GH3.3-m2-65bp (dsDNA)
DNA 1: AATCAAAAGAAAAAAAGCTTTTAGTATTGAGTATTGACCGTCGCTATCGGTGACAGGCAGAGTCA
DNA 2: TGACTCTGCCTGTCACCGATAGCGACGGTCAATACTCAATACTAAAAGCTTTTTTTCTTTTGATT
B2: GH3.3-m1-65bp (dsDNA)
DNA 1: CAAATTGAAAATGTCATTACCACTGATTAAAAAGGAATCAAAAGAAAAAAAGCTTTTAGTATTGA
DNA 2: TCAATACTAAAAGCTTTTTTTCTTTTGATTCCTTTTTAATCAGTGGTAATGACATTTTCAATTTG
B3: CHI-m2-65bp (dsDNA)
DNA 1: GCTATTTTTTTTTTTTTTAATTTTATTGATCAATCAACTGAATACTGAATACAAAAGAAAACCTG
DNA 2: CAGGTTTTCTTTTGTATTCAGTATTCAGTTGATTGATCAATAAAATTAAAAAAAAAAAAAATAGC
B4: CHI-m1-65bp (dsDNA)
DNA 1: CCATTTTTGTTTTTTGTTTTTTCAGTGACAAACTCACATGGATTTCATTTCAGATTCAGTTAGAT
DNA 2: ATCTAACTGAATCTGAAATGAAATCCATGTGAGTTTGTCACTGAAAAAACAAAAAACAAAAATGG

Assays:
RPL (Col-0)-His [1] = target: T1, RPL (Col-0)-His (Arabidopsis thaliana (Col-0), UniProt Q9LZM8 1-575); assay: EMSA
T1 sequence: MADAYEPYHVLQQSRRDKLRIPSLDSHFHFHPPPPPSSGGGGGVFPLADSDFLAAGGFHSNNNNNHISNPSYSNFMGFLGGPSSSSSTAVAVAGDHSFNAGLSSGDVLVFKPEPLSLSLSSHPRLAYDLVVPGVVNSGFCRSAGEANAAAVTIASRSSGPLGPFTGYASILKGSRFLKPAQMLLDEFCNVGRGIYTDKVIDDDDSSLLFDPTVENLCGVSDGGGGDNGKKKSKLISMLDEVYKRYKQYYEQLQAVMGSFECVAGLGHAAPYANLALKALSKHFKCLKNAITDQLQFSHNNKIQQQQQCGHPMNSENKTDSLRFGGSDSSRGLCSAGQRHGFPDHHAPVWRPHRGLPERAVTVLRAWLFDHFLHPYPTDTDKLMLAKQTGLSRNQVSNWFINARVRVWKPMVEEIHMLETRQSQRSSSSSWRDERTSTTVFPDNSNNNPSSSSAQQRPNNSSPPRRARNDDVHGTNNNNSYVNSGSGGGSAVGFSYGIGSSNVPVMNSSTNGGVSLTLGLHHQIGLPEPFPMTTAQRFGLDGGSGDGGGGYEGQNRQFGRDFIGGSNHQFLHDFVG

RPL (Col-0)-His [2] = target: T1, RPL (Col-0)-His; assay: EMSA; remark: listed apart in the source

| Binder | binding result (RPL (Col-0)-His [1]) | binding result (RPL (Col-0)-His [2]) |
| --- | --- | --- |
| B1 | binds | – |
| B2 | binds | – |
| B3 | – | binds |
| B4 | – | binds |
